Source: patent publication US20050069542A1 (Human Genome Sciences, published 2005)

T1: flag-tagged soluble TL3 (amino acids 105-251 of SEQ ID NO:234) (Homo sapiens (Human), UniProt O75888 105-250)
T1 construct: Heterologous flag-tagged control protein, immobilized in the ELISA; also called flagged tagged TL-3; not shown: Flag tag
T1 sequence: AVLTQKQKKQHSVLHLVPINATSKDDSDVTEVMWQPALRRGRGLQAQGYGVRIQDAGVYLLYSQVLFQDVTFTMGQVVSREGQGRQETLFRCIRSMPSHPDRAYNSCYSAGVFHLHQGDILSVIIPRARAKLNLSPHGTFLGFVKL


Target: T1, flag-tagged soluble TL3 (amino acids …)
Assay: phage ELISA on immobilized flag-tagged soluble TL3
In short: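 Phage displaying scFvs selected against flag-tagged GMAD were screened by ELISA against immobilized flag-tagged soluble TL3 (residues 105-251) as a heterologous flag-tagged counter-target, to check that binding is GMAD-specific.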

Row | Binder | binding result
1 | GMCC142 (scFv) scFv: EVQLVQSGAEVKKPGASVTISCKASGYTFTAYYIYWVRQAPGQGLEWMGMSNPNGGYTVYPPNFLGRVTTTPDTSTNTIYMELRSLRSEDTAVYYCARGRGRAPSNAFDFWGRGTLVTVSSGGGGSGGGGSGGGGSALSSELTQDPAVSVALGQTVRITCQGDSLKFYYASWYQQKPGQAPVLVLHGKNNRPSGIPDRFSGSTSRDTASLTITGTQAEDEADYYCNSRDNSDNIVFGTGTKLTVLG | no binding
2 | GMCC127 (scFv) scFv: QVQLVQSGGGVVRPGGSLRLSCAASGFTFDDYGMSWVRQAPGKGLEWVSGINWNGGSTGYADSVKGRFTISRDNAKNSLYLQMNSLRAEDTAVYYCARRRYALDYWGRGTLVTVSSGGGGSGGGGSGGGGSALSSELTQDPAVSVALGQAVRITCQGDSLRTNYASWYQQRPGQAPVLVIRGNNNRPSGIPDRFSGSNSGDTVSLTITGAQAEDEADYYCNSRDTSGYHYVFGTGTKLTVLG | no binding
3 | GMCC138 (scFv) scFv: EVQLVETGPGLVKPSQTLSLTCTVSGGSISSGGYYWSWIRQVPGKGLEWIGYNFYNGSTYFNPSLKSRATISIDTTKNQFSLKLSSVTAADTAVYYCARGNGYRYGRWFDPWGRGTLVTVSSGGGGSGGGGSGGGGSALSYELTQPPSVSVSPGQTARITCSGDALPKQYAYWYQQKPGQAPVLVISKDSERPSGIPERFSGSSSGTTVTLTISGVQAEDEADYYCQSADSSGTYWVFGGGTKVTVLG | no binding
4 | GMCC131 (scFv) scFv: QVQLQESGPGLVKPSETLSLTCSVSGGSIRSHYWSWMRQPPGKGLEWIGYVYYTGSTNYNPSLKSRVTMSVDTSKNQFSLNLSSVTAADTAIYYCARFPYSSGSNPLDYWGRGTLVTVSSGGGGSGGGGSGGGGSAQSVLTQPPSVSAAPGQRVTISCTGSSSNIGARYDVHWYQHLPGTAPKLLIYGDSNRPSGVPDRFSGSKSGTSASLAITGLQPEDEADYYCQSYDSSLSGVVFGGGTKVTVLG | no binding
5 | GMCC129 (scFv) scFv: EVQLVETGGGLAQPGGSLRLSCEASGFTFNNYAMSWVRQAPGKGLEWVSGISISGYSTFYTDSVQGRFTISRDNSKNTLYLQMNSLGVDDTAVYYCAKRRGEGGDFDYWGRGTMVTVSSGGGGSGGGGSGGGGSALSSELTQDPAVSVALGQTVRITCQGDSLRGYYASWYQQKAGQAPVLVIYGKNNRPSGIPDRFSGSSSGNTASLTITGAQAEDEADYYCYSRDRSGNHLGMFGGGTKVTVLG | no binding
6 | GMCC126 (scFv) scFv: QVQLQESGPGLVKPSQTLSLSCAVSGFSVTSGHYWGWIRQSPGKGLEWIGNIYHTGSTRYNPSLESRVSMSVDTSKNQFSLRLTSVTAADTAIYYCARVGRGQHLVRGDFDYWGRGTLVTVSSGGGGSGGGGSGGGGSAQSVLTQPPSISVSPGQTASITCSGDELGHKYASWYQQKPGQSPVVVVYQDNKRPSGIPERFSGSSSGNTATLTISGTQAVDEADYFCQAWDSSAVVFGGGTKLTVLG | no binding
